PMC12169213 (Science (New York, N.Y.), 2025)

Assays:
BRCA1-BARD1 = BRCA1-BARD1 (UniProt P38398 1-1863; Q99728 1-777); assay: pull-down
mCherry-BLM = mCherry-BLM (UniProt P54132 1-1417); assay: DNA curtain single-molecule imaging
Chain of mCherry-BLM (P54132 whole entry): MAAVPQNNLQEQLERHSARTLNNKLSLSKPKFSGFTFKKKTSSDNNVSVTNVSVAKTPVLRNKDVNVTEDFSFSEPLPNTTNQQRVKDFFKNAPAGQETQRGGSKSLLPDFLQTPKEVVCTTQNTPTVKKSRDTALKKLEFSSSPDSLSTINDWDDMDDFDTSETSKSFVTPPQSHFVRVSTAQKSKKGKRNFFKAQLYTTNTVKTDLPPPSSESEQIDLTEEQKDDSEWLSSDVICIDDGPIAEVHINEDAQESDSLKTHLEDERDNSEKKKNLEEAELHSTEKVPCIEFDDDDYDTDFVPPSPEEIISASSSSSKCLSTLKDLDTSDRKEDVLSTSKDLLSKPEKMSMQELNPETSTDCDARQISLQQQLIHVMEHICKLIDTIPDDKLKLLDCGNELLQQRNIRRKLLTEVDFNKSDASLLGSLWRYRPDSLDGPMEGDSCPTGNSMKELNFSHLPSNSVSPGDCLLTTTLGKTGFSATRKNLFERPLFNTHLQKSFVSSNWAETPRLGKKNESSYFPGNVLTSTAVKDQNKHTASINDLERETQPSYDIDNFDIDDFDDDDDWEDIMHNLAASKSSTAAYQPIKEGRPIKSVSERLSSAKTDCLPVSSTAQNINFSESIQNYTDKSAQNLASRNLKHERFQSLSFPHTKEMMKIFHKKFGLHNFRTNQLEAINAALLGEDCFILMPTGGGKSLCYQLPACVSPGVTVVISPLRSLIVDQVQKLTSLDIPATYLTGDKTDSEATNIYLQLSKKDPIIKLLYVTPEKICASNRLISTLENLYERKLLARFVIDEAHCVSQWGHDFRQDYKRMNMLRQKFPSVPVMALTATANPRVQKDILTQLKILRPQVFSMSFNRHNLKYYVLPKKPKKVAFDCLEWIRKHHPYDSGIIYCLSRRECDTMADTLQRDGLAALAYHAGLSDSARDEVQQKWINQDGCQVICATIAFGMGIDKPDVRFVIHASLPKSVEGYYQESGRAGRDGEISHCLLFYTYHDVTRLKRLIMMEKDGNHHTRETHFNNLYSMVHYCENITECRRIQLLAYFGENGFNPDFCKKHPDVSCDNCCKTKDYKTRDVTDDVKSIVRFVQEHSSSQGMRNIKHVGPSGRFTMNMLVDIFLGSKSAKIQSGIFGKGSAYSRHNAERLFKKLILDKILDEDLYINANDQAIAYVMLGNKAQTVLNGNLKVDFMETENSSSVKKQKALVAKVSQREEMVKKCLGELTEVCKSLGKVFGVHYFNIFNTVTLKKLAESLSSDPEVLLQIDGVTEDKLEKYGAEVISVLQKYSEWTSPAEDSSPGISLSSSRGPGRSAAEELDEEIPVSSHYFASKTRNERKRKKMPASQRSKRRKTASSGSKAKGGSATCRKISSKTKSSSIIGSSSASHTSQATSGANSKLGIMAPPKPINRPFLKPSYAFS

Chain of BRCA1-BARD1 (P38398 whole entry, chain 1 of 2): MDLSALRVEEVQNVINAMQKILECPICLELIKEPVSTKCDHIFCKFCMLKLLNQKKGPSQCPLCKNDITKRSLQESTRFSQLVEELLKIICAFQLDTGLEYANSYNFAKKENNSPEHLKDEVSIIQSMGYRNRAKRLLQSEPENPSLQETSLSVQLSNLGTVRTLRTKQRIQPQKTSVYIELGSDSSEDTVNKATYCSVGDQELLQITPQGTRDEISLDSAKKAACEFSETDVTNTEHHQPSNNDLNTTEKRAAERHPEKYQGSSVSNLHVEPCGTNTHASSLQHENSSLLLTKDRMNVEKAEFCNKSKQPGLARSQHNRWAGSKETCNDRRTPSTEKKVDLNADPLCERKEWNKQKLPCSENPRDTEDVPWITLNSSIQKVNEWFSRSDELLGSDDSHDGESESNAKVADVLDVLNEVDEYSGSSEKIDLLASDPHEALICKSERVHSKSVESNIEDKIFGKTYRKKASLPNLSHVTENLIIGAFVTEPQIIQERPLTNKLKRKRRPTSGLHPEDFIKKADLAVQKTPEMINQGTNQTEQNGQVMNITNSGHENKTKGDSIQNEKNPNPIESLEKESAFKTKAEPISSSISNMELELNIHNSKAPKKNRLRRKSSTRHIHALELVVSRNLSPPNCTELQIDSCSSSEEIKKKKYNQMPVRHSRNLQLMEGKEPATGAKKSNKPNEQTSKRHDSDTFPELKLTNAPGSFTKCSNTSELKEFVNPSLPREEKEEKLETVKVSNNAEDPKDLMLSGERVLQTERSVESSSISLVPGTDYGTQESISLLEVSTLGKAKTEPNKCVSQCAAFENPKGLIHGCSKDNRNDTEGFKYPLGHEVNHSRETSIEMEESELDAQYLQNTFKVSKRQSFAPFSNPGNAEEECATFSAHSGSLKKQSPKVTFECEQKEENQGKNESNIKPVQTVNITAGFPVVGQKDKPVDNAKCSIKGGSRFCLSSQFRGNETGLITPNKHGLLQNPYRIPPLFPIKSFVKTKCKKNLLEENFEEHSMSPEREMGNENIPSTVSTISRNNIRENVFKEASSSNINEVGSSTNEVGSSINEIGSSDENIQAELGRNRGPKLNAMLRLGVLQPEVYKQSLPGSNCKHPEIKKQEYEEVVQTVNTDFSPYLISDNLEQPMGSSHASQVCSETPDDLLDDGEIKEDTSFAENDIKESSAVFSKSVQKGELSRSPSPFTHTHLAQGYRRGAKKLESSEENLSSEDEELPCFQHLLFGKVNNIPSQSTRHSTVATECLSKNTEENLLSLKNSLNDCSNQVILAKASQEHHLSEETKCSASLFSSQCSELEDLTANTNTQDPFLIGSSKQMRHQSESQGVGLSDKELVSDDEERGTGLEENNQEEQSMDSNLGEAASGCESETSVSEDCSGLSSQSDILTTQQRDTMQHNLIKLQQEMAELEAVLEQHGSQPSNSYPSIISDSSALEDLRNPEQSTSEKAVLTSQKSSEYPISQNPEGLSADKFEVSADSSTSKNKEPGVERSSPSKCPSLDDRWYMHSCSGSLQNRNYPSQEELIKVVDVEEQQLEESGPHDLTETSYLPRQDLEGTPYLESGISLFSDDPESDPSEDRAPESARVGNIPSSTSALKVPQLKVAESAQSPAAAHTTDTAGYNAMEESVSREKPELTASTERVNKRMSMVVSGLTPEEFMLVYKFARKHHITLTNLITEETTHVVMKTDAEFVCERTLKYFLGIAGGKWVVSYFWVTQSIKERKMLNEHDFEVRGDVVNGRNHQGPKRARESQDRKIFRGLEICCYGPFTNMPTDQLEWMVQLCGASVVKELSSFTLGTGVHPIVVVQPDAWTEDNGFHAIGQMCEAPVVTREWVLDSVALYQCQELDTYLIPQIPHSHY
Chain of BRCA1-BARD1 (Q99728 whole entry, chain 2 of 2): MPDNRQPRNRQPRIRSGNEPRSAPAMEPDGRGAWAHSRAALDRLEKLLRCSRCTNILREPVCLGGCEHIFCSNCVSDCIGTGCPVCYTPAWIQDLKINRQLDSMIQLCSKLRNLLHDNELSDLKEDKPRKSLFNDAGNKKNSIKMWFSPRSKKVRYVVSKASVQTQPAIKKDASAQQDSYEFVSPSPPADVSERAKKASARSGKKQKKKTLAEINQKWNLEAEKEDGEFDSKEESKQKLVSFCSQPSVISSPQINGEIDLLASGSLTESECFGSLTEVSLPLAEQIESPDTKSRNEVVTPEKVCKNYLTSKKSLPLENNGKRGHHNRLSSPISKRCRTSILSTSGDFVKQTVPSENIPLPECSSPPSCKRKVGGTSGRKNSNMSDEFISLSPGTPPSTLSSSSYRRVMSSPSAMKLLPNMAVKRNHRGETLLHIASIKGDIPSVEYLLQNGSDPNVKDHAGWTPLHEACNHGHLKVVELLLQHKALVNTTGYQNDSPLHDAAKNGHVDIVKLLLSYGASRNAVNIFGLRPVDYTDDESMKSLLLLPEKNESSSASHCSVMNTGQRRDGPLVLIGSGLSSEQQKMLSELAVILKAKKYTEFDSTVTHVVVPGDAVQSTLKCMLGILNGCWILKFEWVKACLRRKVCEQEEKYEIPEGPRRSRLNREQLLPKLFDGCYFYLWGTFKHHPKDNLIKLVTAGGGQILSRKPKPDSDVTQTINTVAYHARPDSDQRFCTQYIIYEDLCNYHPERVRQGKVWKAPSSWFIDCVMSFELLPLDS

binding result (BRCA1-BARD1)	binding result (mCherry-BLM)	Binder
binds	–	CTC1-STN1-TEN1 (CST) complex (complex) chain 1: AAGRAQVPSSEQAWLEDAQVFIQKTLCPAVKEPNVQLTPLVIDCVKTVWLSQGRNQGSTLPLSYSFVSVQDLKTHQRLPCCSHLSWSSSAYQAWAQEAGPNGNPLPREQLLLLGTLTDLSADLEQECRNGSLYVRDNTGVLSCELIDLDLSWLGHLFLFPRWSYLPPARWNSSGEGHLELWDAPVPVFPLTISPGPVTPIPVLYPESASCLLRLRNKLRGVQRNLAGSLVRLSALVKSKQKAYFILSLGRSHPAVTHVSIIVQVPAQLVWHRALRPGTAYVLTELRVSKIRGQRQHVWMTSQSSRLLLLKPECVQELELELEGPLLEADPKPLPMPSNSEDKKDPESLVRYSRLLSYSGAVTGVLNEPAGLYELDGQLGLCLAYQQFRGLRRVMRPGVCLQLQDVHLLQSVGGGTRRPVLAPCLRGAVLLQSFSRQKPGAHSSRQAYGASLYEQLVWERQLGLPLYLWATKALEELACKLCPHVLRHHQFLQHSSPGSPSLGLQLLAPTLDLLAPPGSPVRNAHNEILEEPHHCPLQKYTRLQTPSSFPTLATLKEEGQRKAWASFDPKALLPLPEASYLPSCQLNRRLAWSWLCLLPSAFCPAQVLLGVLVASSHKGCLQLRDQSGSLPCLLLAKHSQPLSDPRLIGCLVRAERFQLIVERDVRSSFPSWKELSMPGFIQKQQARVYVQFFLADALILPVPRPCLHSATPSTPQTDPTGPEGPHLGQSRLFLLCHKEALMKRNFCVPPGASPEVPKPALSFYVLGSWLGGTQRKEGTGWGLPEPQGNDDNDQKVHLIFFGSSVRWFEFLHPGQVYRLIAPGPATPMLFEKDGSSCISRRPLELAGCASCLTVQDNWTLELESSQDIQDVLDANKSLPESSLTDLLSDNFTDSLVSFSAEILSRTLCEPLVASLWMKLGNTGAMRRCVKLTVALETAECEFPPHLDVYIEDPHLPPSLGLLPGARVHFSQLEKRVSRSHNVYCCFRSSTYVQVLSFPPETTISIPLPHIYLAELLQGGQSPFQATASCHIVSVFSLQLFWVCAYCTSICRQGKCTRLGSTCPTQTAISQAIIRLLVEDGTAEAVVTCRNHHVAAALGLCPREWASLLDFVQVPGRVVLQFAGPGAQLESSARVDEPMTMFLWTLCTSPSVLRPIVLSFELERKPSKIVPLEPPRLQRFQCGELPFLTHVNPRLRLSCLSIRESEYSSSLGILASSC chain 2: QPGSSRCEEETPSLLWGLDPVFLAFAKLYIRDILDMKESRQVPGVFLYNGHPIKQVDVLGTVIGVRERDAFYSYGVDDSTGVINCICWKKLNTESVSAAPSAARELSLTSQLKKLQETIEQKTKIEIGDTIRVRGSIRTYREEREIHATTYYKVDDPVWNIQIARMLELPTIYRKVYDQPFHSSALEKEEALSNPGALDLPSLTSLLSEKAKEFLMENRVQSFYQQELEMVESLLSLANQPVIHSASSDQVNFKKDTTSKAIHSIFKNAIQLLQEKGLVFQKDDGFDNLYYVTREDKDLHRKIHRIIQQDCQKPNHMEKGCHFLHILACARLSIRPGLSEAVLQQVLELLEDQSDIVSTMEHYYTAF chain 3: LPKPGTYYLPWEVSAGQVPDGSTLRTFGRLCLYDMIQSRVTLMAQHGSDQHQVLVCTKLVEPFHAQVGSLYIVLGELQHQQDRGSVVKARVLTCVEGMNLPLLEQAIREQRLYKQERGGSQ
–	binds	green fluorescent protein (GFP)-DNA2 (enzyme, UniProt P51530 1-1060, looked up) MEQLNELELLMEKSFWEEAELPAELFQKKVVASFPRTVLSTGMDNRYLVLAVNTVQNKEGNCEKRLVITASQSLENKELCILRNDWCSVPVEPGDIIHLEGDCTSDTWIIDKDFGYLILYPDMLISGTSIASSIRCMRRAVLSETFRSSDPATRQMLIGTVLHEVFQKAINNSFAPEKLQELAFQTIQEIRHLKEMYRLNLSQDEIKQEVEDYLPSFCKWAGDFMHKNTSTDFPQMQLSLPSDNSKDNSTCNIEVVKPMDIEESIWSPRFGLKGKIDVTVGVKIHRGYKTKYKIMPLELKTGKESNSIEHRSQVVLYTLLSQERRADPEAGLLLYLKTGQMYPVPANHLDKRELLKLRNQMAFSLFHRISKSATRQKTQLASLPQIIEEEKTCKYCSQIGNCALYSRAVEQQMDCSSVPIVMLPKIEEETQHLKQTHLEYFSLWCLMLTLESQSKDNKKNHQNIWLMPASEMEKSGSCIGNLIRMEHVKIVCDGQYLHNFQCKHGAIPVTNLMAGDRVIVSGEERSLFALSRGYVKEINMTTVTCLLDRNLSVLPESTLFRLDQEEKNCDIDTPLGNLSKLMENTFVSKKLRDLIIDFREPQFISYLSSVLPHDAKDTVACILKGLNKPQRQAMKKVLLSKDYTLIVGMPGTGKTTTICTLVRILYACGFSVLLTSYTHSAVDNILLKLAKFKIGFLRLGQIQKVHPAIQQFTEQEICRSKSIKSLALLEELYNSQLIVATTCMGINHPIFSRKIFDFCIVDEASQISQPICLGPLFFSRRFVLVGDHQQLPPLVLNREARALGMSESLFKRLEQNKSAVVQLTVQYRMNSKIMSLSNKLTYEGKLECGSDKVANAVINLRHFKDVKLELEFYADYSDNPWLMGVFEPNNPVCFLNTDKVPAPEQVEKGGVSNVTEAKLIVFLTSIFVKAGCSPSDIGIIAPYRQQLKIINDLLARSIGMVEVNTVDKYQGRDKSIVLVSFVRSNKDGTVGELLKDWRRLNVAITRAKHKLILLGCVPSLNCYPPLEKLLNHLNSEKLIIDLPSREHESLCHILGDFQRE
